The target in one experiment is T1, rabbit serum albumin (rabbit, UniProt P49065 25-608).
T1 construct: Bought protein, immobilized on a CM5 chip by amine coupling; also called Rabbit SA
Briefly: SPR (Biacore 8K), albumin immobilized on CM5 chip, 25 C. How it is done: (§1) The immobilization of the serum albumin to a Series S Sensor Chip CM5 surface is performed according to the manufacturer's instructions (Amine Coupling Kit BR-1000-50). Briefly, carboxyl groups on the sensor chip surfaces (flow cell 1 and 2) are activated by injecting 70 μL of a mixture containing 75 mg/mL EDC and 11.5 mg/mL NHS at 10 μL/min. Human, cynomolgus monkey, mouse, rat, pig, dog, cow and rabbit serum albumin are diluted in 10 mM sodium acetate pH 4.0 (BR-1003-49) at […] and then injected over the activated chip surfaces (flow cell 2, channel 1 to 8) at 10 μL/min for 180 sec (human, mouse, rat, pig and cow serum albumin are obtained from Sigma Aldrich (St. Louis, MO); cynomolgus monkey serum albumin is obtained from Hölzel Diagnostika (Cologne, Germany); dog serum albumin is obtained from Molecular Innovations (Novi, MI); and rabbit serum albumin is obtained from Fitzgerald Industries Intl. (Acton, MA). The various serum albumins are covalently immobilized through free amines onto a carboxymethyl dextran-coated sensor chip CM5 targeting a surface density of about 100 (62-145) RU. Excess reactive groups on the surfaces (flow cell 1 and 2) are deactivated by injecting 70 μL of 1 M ETA HCl—NaOH pH 8.5.
(§2) 150 μl of sample is individually injecting sequentially across the immobilized serum albumins on the chip's surface and dissociating for 600 sec at 50 μL/min flow rate at 25° C. The surface is regenerated by injecting 10 mM glycine-HCl pH 1.5 (BR-1003-54) at 50 μL/min for 100 sec. The resulting sensorgrams are analyzed using Biacore 8K Insight Evaluation Software (version 2.0.15.12933) 1:1 binding kinetics model fitting to calculate the binding kinetic parameter association rate (ka), dissociation rate (kd), and equilibrium dissociation constant (KD).
On the technique in general: SPR reads the build-up and loss of mass on a sensor chip optically.

A further experiment has as its target T2, cow serum albumin (cow, UniProt P02769 25-607).
T2 construct: Bought protein, immobilized on a CM5 chip by amine coupling; also called Cow SA
Briefly: SPR (Biacore 8K), albumin immobilized on CM5 chip, 25 C, steady state. As to the method: as §1
150 μl of sample is individually injecting sequentially across the immobilized serum albumins on the chip's surface and dissociating for 600 sec at 50 μL/min flow rate at 25° C. The surface is regenerated by injecting 10 mM glycine-HCl pH 1.5 (BR-1003-54) at 50 μL/min for 100 sec. The resulting sensorgrams are analyzed using Biacore 8K Insight Evaluation Software ([…]).

For another experiment, the target named is T3, human serum albumin (human, UniProt P02768 25-609).
T3 construct: Bought protein, immobilized on a CM5 chip by amine coupling; also called Human SA
Briefly: SPR (Biacore 8K), albumin immobilized on CM5 chip, 25 C, 1:1 kinetic fit. As to the method:
as §1, §2

In experiment [1] the target is T4, cynomolgus monkey serum albumin (cynomolgus monkey, UniProt A2V9Z4 25-608).
T4 construct: Bought protein, immobilized on a CM5 chip by amine coupling; also called Cyno SA
The description is as above. How it is done: as §1, §2

A further experiment has as its target T5, mouse serum albumin (mouse, UniProt P07724 25-608).
T5 construct: Bought protein, immobilized on a CM5 chip by amine coupling; also called Mouse SA
The experiment is described as above. As to the method: as §1, §2

The target in the next experiment is T6, rat serum albumin (rat, UniProt P02770 25-608).
T6 construct: Bought protein, immobilized on a CM5 chip by amine coupling; also called Rat SA
The description is as above. How it is done: as §1, §2

The target in a further experiment is T7, pig serum albumin (pig, UniProt P08835 25-607).
T7 construct: Bought protein, immobilized on a CM5 chip by amine coupling; also called Pig SA
Described as above. As to the method: as §1, §2

A further experiment has as its target T8, dog serum albumin (dog, UniProt P49822 25-608).
T8 construct: Bought protein, immobilized on a CM5 chip by amine coupling; also called Dog SA
The experiment is described as above. As to the method:
as §1, §2

B1: RLN Analog 3 (other)
chain: EVQLLESGGGLVQPGGSLRLSCAASGRYIDETAVAWFRQAPGKEREFVAGIGGGVDITYYADSVKGRFTISRDNSKNTLYLQMNSLRPEDTAVYYCAARPGRPLITSKVADLYPYWGQGTLVTVSSGGGGQGGGGQGGGGQGGGGQGGGGQSWMEEVIKLCGRELVRAQIAICGMSTWSGGGSGGSGGGQLYSALANKCCHVGCTKRSLARFC
notes: Single-chain fusion: VHH - (G4Q)5 L1 - RLN2 B chain (desB1) - L2 - RLN2 A chain
In the case of B1, in the experiment with rabbit serum albumin, the binding result is given as “no binding (tested: 1000 nM (highest concentration tested))”. The Kd with cow serum albumin was found to be 26 nM; with human serum albumin, 0.076 nM; in experiment [1] it was 0.36 nM; with mouse serum albumin, 2.4 nM; in the experiment with rat serum albumin, 1.6 nM; with pig serum albumin, 4.8 nM. In the experiment with dog serum albumin, this molecule displayed a Kd of 0.7 nM. The koff worked out at 0.00011 s⁻¹ with human serum albumin; 0.00054 s⁻¹ in experiment [1]; 0.004 s⁻¹ with mouse serum albumin; 0.0027 s⁻¹ with rat serum albumin; 0.0053 s⁻¹ with pig serum albumin; 0.0014 s⁻¹ with dog serum albumin. The kon was 1.4e+06 M⁻¹ s⁻¹ with human serum albumin; 1.5e+06 M⁻¹ s⁻¹ in experiment [1]; 1.7e+06 M⁻¹ s⁻¹ with mouse serum albumin; 1.7e+06 M⁻¹ s⁻¹ in the experiment with rat serum albumin; 1.1e+06 M⁻¹ s⁻¹ with pig serum albumin; 2e+06 M⁻¹ s⁻¹ with dog serum albumin.

B2: RLN Analog 7 (other)
chain: EVQLLESGGGLVQPGGSLRLSCAASGRYIDETAVAWFRQAPGKGREFVAGIGGGVDITYYADSVKGRFTISRDNSKNTLYLQMNSLRPEDTAVYYCAARPGRPLITSKVADLYPYWGQGTLVTVSSGGGGQGGGGQGGGGQGGGGQGGGGQSWMEEVIKLCGRELVRAQIAICGMSTWSGGGSGGSGGGQLYSALANKCCHVGCTKRSLARFC
notes: as for B1
For the molecule B2, the binding result with rabbit serum albumin is recorded as “no binding (tested: 1000 nM (highest concentration tested))”. Further, the Kd was 25 nM with cow serum albumin; 0.063 nM in the experiment with human serum albumin; 0.29 nM in experiment [1]; 2.1 nM in the experiment with mouse serum albumin; 1.4 nM in the experiment with rat serum albumin; 3.7 nM with pig serum albumin. Besides, in the experiment with dog serum albumin, the Kd stood at 0.69 nM. Further, the koff amounted to 0.00012 s⁻¹ with human serum albumin; 0.00059 s⁻¹ in experiment [1]; 0.0041 s⁻¹ in the experiment with mouse serum albumin; 0.0028 s⁻¹ in the experiment with rat serum albumin; 0.0054 s⁻¹ with pig serum albumin; 0.0015 s⁻¹ in the experiment with dog serum albumin. Further, the on-rate constant (kon) came to 1.9e+06 M⁻¹ s⁻¹ in the experiment with human serum albumin; 2.1e+06 M⁻¹ s⁻¹ in experiment [1]; 2e+06 M⁻¹ s⁻¹ with mouse serum albumin; 2e+06 M⁻¹ s⁻¹ with rat serum albumin; 1.5e+06 M⁻¹ s⁻¹ with pig serum albumin; 2.2e+06 M⁻¹ s⁻¹ in the experiment with dog serum albumin.

B3: RLN Analog 4 (other)
chain: EVQLLESGGGLVQPGGSLRLSCAASGRYIDETAVAWFRQAPGKEREFVAGIGGGVDITYYADSVKGRFTISRDNSKNTLYLQMNSLRPEDTAVYYCAARPGRPLITSKVADLYPYWGQGTLVTVSSPGPQPGPQPGPQPGPQPGPQPGPQPGPQPGPQSWMEEVIKLCGRELVRAQIAICGMSTWSGGGSGGSGGGQLYSALANKCCHVGCTKRSLARFC
notes: Single-chain fusion: VHH - (PGPQ)8 L1 - RLN2 B chain (desB1) - L2 - RLN2 A chain
Turning to B3, in the experiment with rabbit serum albumin, the binding result is on record as “no binding (tested: 1000 nM (highest concentration tested))”. Also, the Kd with cow serum albumin was determined as 37 nM; with human serum albumin, 0.089 nM; in experiment [1], 0.42 nM; with mouse serum albumin it was 3 nM; with rat serum albumin, 2.1 nM; with pig serum albumin it was 6.2 nM. Besides, binding in the experiment with dog serum albumin was characterised by a dissociation constant (Kd) of 1 nM. The koff in the experiment with human serum albumin was determined as 0.00011 s⁻¹; in experiment [1], 0.00053 s⁻¹; with mouse serum albumin, 0.0039 s⁻¹; with rat serum albumin it was 0.0026 s⁻¹; with pig serum albumin, 0.0053 s⁻¹; with dog serum albumin it was 0.0014 s⁻¹. Also, the kon was 1.2e+06 M⁻¹ s⁻¹ in the experiment with human serum albumin; 1.3e+06 M⁻¹ s⁻¹ in experiment [1]; 1.3e+06 M⁻¹ s⁻¹ in the experiment with mouse serum albumin; 1.2e+06 M⁻¹ s⁻¹ with rat serum albumin; 860000 M⁻¹ s⁻¹ with pig serum albumin; 1.4e+06 M⁻¹ s⁻¹ with dog serum albumin.

B4: RLN Analog 8 (other)
chain: EVQLLESGGGLVQPGGSLRLSCAASGRYIDETAVAWFRQAPGKGREFVAGIGGGVDITYYADSVKGRFTISRDNSKNTLYLQMNSLRPEDTAVYYCAARPGRPLITSKVADLYPYWGQGTLVTVSSPGPQPGPQPGPQPGPQPGPQPGPQPGPQPGPQSWMEEVIKLCGRELVRAQIAICGMSTWSGGGSGGSGGGQLYSALANKCCHVGCTKRSLARFC
notes: as for B3
Turning to B4, the binding result with rabbit serum albumin is “no binding (tested: 1000 nM (highest concentration tested))”. For the same molecule, the Kd is 21 nM with cow serum albumin; 0.078 nM with human serum albumin; 0.32 nM in experiment [1]; 1.8 nM in the experiment with mouse serum albumin; 1.7 nM in the experiment with rat serum albumin; 4.1 nM with pig serum albumin. The affinity in the experiment with dog serum albumin, expressed as Kd, was 0.66 nM. Moreover, the koff in the experiment with human serum albumin came out at 0.00011 s⁻¹; in experiment [1], 0.00059 s⁻¹; with mouse serum albumin, 0.0039 s⁻¹; with rat serum albumin it was 0.0028 s⁻¹; with pig serum albumin, 0.0052 s⁻¹; with dog serum albumin, 0.0015 s⁻¹. The kon with human serum albumin is 1.5e+06 M⁻¹ s⁻¹; in experiment [1] it was 1.9e+06 M⁻¹ s⁻¹; in the experiment with mouse serum albumin, 2.2e+06 M⁻¹ s⁻¹; with rat serum albumin it was 1.6e+06 M⁻¹ s⁻¹; in the experiment with pig serum albumin, 1.3e+06 M⁻¹ s⁻¹; in the experiment with dog serum albumin, 2.3e+06 M⁻¹ s⁻¹.

B5: RLN Analog 11 (other)
chain: EVQLLESGGGLVQPGGSLRLSCAASGRYIDETAVAWFRQAPGKEREFVAGIGGGVDITYYADSVKGRFTISRDNSKNTLYLQMNSLRPEDTAVYYCAARPGRPLITSKVADLYPYWGQGTLVTVSSGGGGQGGGGQGGGGQGGGGQGGGGQSWMEEVIKLCGRELVRAQIAICGMSTWSGGGSGGSGGSGGGALANKCCHVGCTKRSLARFC
notes: Single-chain fusion: VHH - (G4Q)5 L1 - RLN2 B chain (desB1) - L2 of thirteen residues - RLN2 A chain (desA1-4)
Regarding B5, the binding result with rabbit serum albumin is listed as “no binding (tested: 1000 nM (highest concentration tested))”. For the same molecule, the Kd with cow serum albumin amounted to 27 nM; in the experiment with human serum albumin, 0.17 nM; in experiment [1], 0.48 nM; with mouse serum albumin it was 3.6 nM; with rat serum albumin, 1.3 nM; in the experiment with pig serum albumin it was 7.3 nM. Moreover, the equilibrium dissociation constant (Kd) with dog serum albumin turned out to be 1.3 nM. Also, the koff in the experiment with human serum albumin amounted to 0.00021 s⁻¹; in experiment [1], 0.00064 s⁻¹; in the experiment with mouse serum albumin it was 0.005 s⁻¹; in the experiment with rat serum albumin it was 0.0028 s⁻¹; with pig serum albumin, 0.0062 s⁻¹; with dog serum albumin, 0.0017 s⁻¹. Further, the kon in the experiment with human serum albumin stood at 1.2e+06 M⁻¹ s⁻¹; in experiment [1], 1.3e+06 M⁻¹ s⁻¹; with mouse serum albumin, 1.4e+06 M⁻¹ s⁻¹; in the experiment with rat serum albumin it was 2.1e+06 M⁻¹ s⁻¹; in the experiment with pig serum albumin, 850000 M⁻¹ s⁻¹; in the experiment with dog serum albumin, 1.4e+06 M⁻¹ s⁻¹.

B6: RLN Analog 12 (other)
chain: EVQLLESGGGLVQPGGSLRLSCAASGRYIDETAVAWFRQAPGKGREFVAGIGGGVDITYYADSVKGRFTISRDNSKNTLYLQMNSLRPEDTAVYYCAARPGRPLITSKVADLYPYWGQGTLVTVSSGGGGQGGGGQGGGGQGGGGQGGGGQSWMEEVIKLCGRELVRAQIAICGMSTWSGGGSGGSGGSGGGALANKCCHVGCTKRSLARFC
notes: as for B5
Regarding B6, the binding result with rabbit serum albumin is “no binding (tested: 1000 nM (highest concentration tested))”. The Kd with cow serum albumin came out at 30 nM; in the experiment with human serum albumin, 0.14 nM; in experiment [1] it was 0.47 nM; with mouse serum albumin it was 2.6 nM; with rat serum albumin, 1.7 nM; in the experiment with pig serum albumin it was 4.2 nM. For the same molecule, in the experiment with dog serum albumin, the affinity, expressed as Kd, was 0.77 nM. For the same molecule, the koff was 0.00019 s⁻¹ with human serum albumin; 0.0007 s⁻¹ in experiment [1]; 0.0049 s⁻¹ in the experiment with mouse serum albumin; 0.0033 s⁻¹ with rat serum albumin; 0.0058 s⁻¹ in the experiment with pig serum albumin; 0.0016 s⁻¹ with dog serum albumin. Further, the kon in the experiment with human serum albumin stood at 1.4e+06 M⁻¹ s⁻¹; in experiment [1] it was 1.5e+06 M⁻¹ s⁻¹; with mouse serum albumin, 1.8e+06 M⁻¹ s⁻¹; with rat serum albumin, 2e+06 M⁻¹ s⁻¹; with pig serum albumin, 1.4e+06 M⁻¹ s⁻¹; with dog serum albumin, 2.1e+06 M⁻¹ s⁻¹.

By Kd is commonly meant the equilibrium constant for the complex coming apart. As usually defined, the koff is a measure of how fast the partners let go of each other. One may read the kon as the second-order rate constant of association.

These data come from patent publication US20260125446A1 (Eli Lilly, published 2026).
